Numbering of substitutions follows the chain as printed. Names may count otherwise.
B1: H240-Kn192/H240-Hl204/L73-k0 (antibody, human IgG1, kappa)
heavy 1: QDQLVQSGAEVKKPGASVKVSCKASGFNIKDTYIQWVRQAPGQGLEWMGRIDPLRKQTKYREKFEGRVTITADTSTNTAYMELSSLRSEDTAVYYCVRSGREFDYWGQGTLVTVSSASTKGPSVFPLAPSSKSTSGGTAALGCLVKDYFPEPVTVSWNSGALTSGVHTFPAVLQSSGLYSLSSVVTVPSSSLGTQTYICNVNHKPSNTKVDKKVEPKSCDKTHTCPPCPAPEYNWGPMVFLFPPKPKDTLMISRTPEVTCVVVDVSDEDPEVKFNWYVDGVEVHNAKTKPREKQYNATYRVVSVLTVLHQDWLNGKEYKCKVSNKDLPAPIEKTISKAKGQPREPQVCTLPPSRDELTKNQVSLWCLVKGFYPSDIAVEWESNGQPENNYKTTPPVLDSDGSFFLYSKLTVDKSRWQQGNVFSCSVMHEALHNHYTQKSLSLSP
heavy 2: QDQLVQSGAEVKKPGASVKVSCKASGFNIKDTYIQWVRQAPGQGLEWMGRIDPLRKQTKYREKFEGRVTITADTSTNTAYMELSSLRSEDTAVYYCVRSGREFDYWGQGTLVTVSSASTKGPSVFPLAPSSKSTSGGTAALGCLVKDYFPEPVTVSWNSGALTSGVHTFPAVLQSSGLYSLSSVVTVPSSSLGTQTYICNVNHKPSNTKVDKKVEPKSCDKTHTCPPCPAPELLTGPSVFLFPPKPKDTLMISRTPEVTCVVVDVSHEEPEVKFNWYVDGVEVHNAKTKPREEQYNSTYRVVSVLTVLHQDWLNGKEYKCKVSNDALPKPEEETISKAKGQPREPQVYTLPPSRCELTKNQVSLSCAVKGFYPSDIAVEWESNGQPENNYKTTPPVLDSDGSFFLVSKLTVDKSRWQQGNVFSCSVMHEALHNHYTQKSLSLSP
light: DIQMTQSPSSLSASVGDRVTITCRASQDIHKYIAWYQQKPGQAPRLLIQYTSTLQPGVPSRFSGSGSGTDYTFTISSLQPEDIATYYCLQYEQLRTFGGGTKVEIKRTVAAPSVFIFPPSDEQLKSGTASVVCLLNNFYPREAKVQWKVDNALQSGNSQESVTEQDSKDSTYSLSSTLTLSKADYEKHKVYACEVTHQGLSSPVTKSFNRGEC
notes: Y235N and E294K in H240-Kn120; G236T and I332E in H240-Hl068; also called H240-Kn192/H240-HI204/L73-k0
B2: H240-Kn202/H240-Hl076/L73-k0 (antibody, human IgG1, kappa)
heavy 1: B1 heavy 1 with Y233E, N234Q, D269E, K293E, D326A
heavy 2: B1 heavy 2 with T235G, K329M, E331I
light: B1 light
B3: H240-Kn217/H240-Hl068/L73-k0 (antibody, human IgG1, kappa)
heavy 1: B1 heavy 1 with Y233D, N234Y, K293E
heavy 2: B1 heavy 2 with T235G, E331I
light: B1 light
B4: H240-Kn201/H240-Hl076/L73-k0 (antibody, human IgG1, kappa)
heavy 1: B1 heavy 1 with Y233F, N234Q, D269E, K293E, D326A
heavy 2: B1 heavy 2 with T235G, K329M, E331I
light: B1 light
B5: H240-Kn221/H240-Hl068/L73-k0 (antibody, human IgG1, kappa)
heavy 1: B1 heavy 1 with Y233T, N234Y, K293E
heavy 2: B1 heavy 2 with T235G, E331I
light: B1 light
B6: H240-Kn208/H240-Hl076/L73-k0 (antibody, human IgG1, kappa)
heavy 1: B1 heavy 1 with Y233D, N234Q, D269E, K293E, D326A
heavy 2: B1 heavy 2 with T235G, K329M, E331I
light: B1 light
B7: H240-Kn193/H240-Hl204/L73-k0 (antibody, human IgG1, kappa)
heavy 1: B1 heavy 1 with K293R
heavy 2: B1 heavy 2
light: B1 light
notes: Y235N and E294R in H240-Kn120; G236T and I332E in H240-Hl068; also called H240-Kn193/H240-HI204/L73-k0
B8: H240-Kn184/H240-Hl068/L73-k0 (antibody, human IgG1, kappa)
heavy 1: B1 heavy 1 with Y233E, N234Y, K293E
heavy 2: B1 heavy 2 with T235G, E331I
light: B1 light
B9: H240-Kn199/H240-Hl068/L73-k0 (antibody, human IgG1, kappa)
heavy 1: B1 heavy 1 with Y233L, N234Y, K293E
heavy 2: B1 heavy 2 with T235G, E331I
light: B1 light
B10: GpH7-A5/GpH7-B3-03-20W/GpL16-k0 (antibody, human IgG1, kappa)
heavy 1: not shown
heavy 2: not shown
light: DIVMTQSPLSLPVTPGEPASISCQASESLVHSNRNTYLHWYLQKPGQSPQLLIYKVSNRFSGVPDRFSGSGSGTDFTLKISRVEAEDVGVYYCSQNTHVPPTFGQGTKVEIERTVAAPSVFIFPPSDEQLKSGTASVVCLLNNFYPREAKVQWKVDNALQSGNSQESVTEQDSKDSTYSLSSTLTLSKADYEKHKVYACEVTHQGLSSPVTKSFNRGEC
notes: G236W in the GpH7-B3 chain only; also called He Ab G236_20W; GpH7-A5/GpH7-B3 variant G236_20W/GpL16-k0
B11: GpH7-TA5/GpH7-B3/GpL16-k0 (antibody, human IgG1, kappa)
heavy 1: QVQLVQSGAEVKKPGASVTVSCKASGYTFTDYEMHWIRQPPGEGLEWIGAIDPKTGDTAYSESFQDRVTLTADKSTSTAYMELSSLTSEDTAVYYCTRFYSYTYWGQGTLVTVSSASTKGPSVFPLAPSSKSTSGGTAALGCLVKDYFPEPVTVSWNSGALTSGVHTFPAVLQSSGLYSLSSVVTVPSSSLGTQTYICNVNHKPSNTKVDKKVEPKSCDKTHTCPPCPAPEYLGGPSVFLFPPKPKDTLMISRTPEVTCVVVDVSHEDPEVKFNWYVDGVEVHNAKTKPREEQYNATYRVVSVLTVLHQDWLNGKEYKCKVSNKALPAPIEKTISKAKGQPREPQVYTLPPSRKELTKNQVSLTCLVKGFYPSDIAVEWESNGQPENNYKTTPPVLDSDGSFFLYSKLTVDKSRWQQGNVFSCSVMHEALHNRYTQKSLSLSP
heavy 2: not shown
light: B10 light
notes: H1 L234Y and S298A
B12: GpH7-TA4/GpH7-B3/GpL16-k0 (antibody, human IgG1, kappa)
heavy 1: B11 heavy 1 with G234W, A296S
heavy 2: not shown
light: B10 light
notes: H1 L234Y and G236W
B13: GpH7-A5/GpH7-B3-01-15Y/GpL16-k0 (antibody, human IgG1, kappa)
heavy 1: not shown
heavy 2: not shown
light: B10 light
notes: L234Y in the GpH7-B3 chain only; also called He Ab L234_15Y; GpH7-A5/GpH7-B3 variant L234_15Y/GpL16-k0
B14: GpH7-TA3/GpH7-B3-03-20W/GpL16-k0 (antibody, human IgG1, kappa)
heavy 1: B11 heavy 1 with Y232L
heavy 2: not shown
light: B10 light
notes: H1 S298A; H2 G236W
B15: GpH7-TA6/GpH7-B3/GpL16-k0 (antibody, human IgG1, kappa)
heavy 1: B11 heavy 1 with Y232L, G234W
heavy 2: not shown
light: B10 light
notes: H1 G236W and S298A
B16: GpH7-TA1/GpH7-B3-15-02A/GpL16-k0 (antibody, human IgG1, kappa)
heavy 1: B11 heavy 1 with A296S
heavy 2: not shown
light: B10 light
notes: H1 L234Y; H2 S298A

What follows are binders tested against FcγRIIIa F (human, UniProt P08637 17-208) (assay: SPR (Biacore), KD).
FcγRIIIa F, sequence (P08637 17-208): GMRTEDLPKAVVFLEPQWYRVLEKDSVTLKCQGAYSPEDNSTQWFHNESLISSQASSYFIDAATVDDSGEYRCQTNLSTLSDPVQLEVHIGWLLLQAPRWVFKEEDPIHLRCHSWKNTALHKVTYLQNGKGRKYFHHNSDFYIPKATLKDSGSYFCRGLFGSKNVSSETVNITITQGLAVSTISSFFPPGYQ

| fold binding against the variant before introduction of I332E and Y235N [times] | fold binding activity against H240-Kn033/H240-Hl033/L73-k0 [fold] | Binder |
| --- | --- | --- |
| 2 | – | B1 |
| – | ≥ 100 | B2 |
| – | ≥ 100 | B3 |
| – | ≥ 100 | B4 |
| – | ≥ 100 | B5 |
| – | ≥ 100 | B6 |
| 2 | – | B7 |
| – | ≥ 100 | B8 |
| – | ≥ 100 | B9 |

These binders were tested against FcγRIIIa V (human, UniProt P08637 17-208) (assay: SPR (Biacore), KD).
FcγRIIIa V, sequence (P08637 17-208): as above

| fold binding against the variant before introduction of I332E and Y235N [times] | fold binding activity against H240-Kn033/H240-Hl033/L73-k0 [fold] | Binder |
| --- | --- | --- |
| 8 | – | B1 |
| – | ≥ 100 | B2 |
| – | ≥ 100 | B3 |
| – | ≥ 100 | B4 |
| – | ≥ 100 | B5 |
| – | ≥ 100 | B6 |
| 8 | – | B7 |
| – | ≥ 100 | B8 |
| – | ≥ 100 | B9 |

Each binder was assayed against T1, FcγRIIIa extracellular domain with C-terminal His tag (human, UniProt P08637 17-208) (assay: SPR (Biacore), relative binding activity; GpH7-A5/GpH7-B3/GpL16-k0 = 100).
T1 sequence (P08637 17-208): as above

| FcγRIIIa BINDING ACTIVITY [%] | Binder |
| --- | --- |
| 140 | B10 |
| 208 | B11 |
| 168 | B12 |
| 131 | B13 |
| 70 | B14 |
| 228 | B15 |
| 142 | B16 |

These binders were tested against T1, FcγRIIIa extracellular domain with … (assay: SPR (Biacore), one H chain altered; HeCon Ab GpH7-A5/GpH7-B3/GpL16-k0 = 100).

| He/Con_3a [%] | Binder |
| --- | --- |
| 135 | B10 |
| 130 | B13 |

— patent US20150344570A1 (published 2015)
